{
  "source": "the RNAGym collection of RNA variant scans (doi:10.1101/gr.219683.116)",
  "parents": {"B1": {"name": "mRNA-splicing (parent)", "chain": "AGUUGCUGCUGGGAGCUCCAGCACAGUGAAAUGGACAGAAGGGCAGAGCAA"}},
  "data": [
    {"variants_of": "B1", "assay": "exon inclusion enrichment index; higher = more inclusion; WT1 exon 5 minigene, HEK293", "values": [
      {"variant": "AGUUCACACAGGGAGCUCCAGCACAGUGAAAUGGACAGAAGGUUAGAGCAA", "note": "[G5C C6A U7C G8A U10A G43U C44U]", "exon inclusion enrichment index": 0.0172},
      {"variant": "AGUUCACACAGGGAGCUCCAGCACAGUGAAAUGGACAGAAGGUAAGAGCAA", "note": "[G5C C6A U7C G8A U10A G43U C44A]", "exon inclusion enrichment index": 0.00933},
      {"variant": "AGUUCACACAGGGAGCUCCAGCACAGUGAAAUGGACAGAAGGUGAGAGCAA", "note": "[G5C C6A U7C G8A U10A G43U C44G]", "exon inclusion enrichment index": 0.112},
      {"variant": "AGUUCACACAGGGAGCACCAGCACAGUGAAAUGGACAGAAGGGCAGAGCAA", "note": "[G5C C6A U7C G8A U10A U17A]", "exon inclusion enrichment index": 0.106},
      {"variant": "AGUUCACACAGGGAGCGCCAGCACAGUGAAAUGGACAGAAGGGCAGAGCAA", "note": "[G5C C6A U7C G8A U10A U17G]", "exon inclusion enrichment index": 0.0684},
      {"variant": "AGUUCACACAGGGAGCCCCAGCACAGUGAAAUGGACAGAAGGGCAGAGCAA", "note": "[G5C C6A U7C G8A U10A U17C]", "exon inclusion enrichment index": 0.0444},
      {"variant": "AGUUCACACAGGGAGCUCCAGCACAGUGAAAUGGACAGAACCGCAGAGCAA", "note": "[G5C C6A U7C G8A U10A G41C G42C]", "exon inclusion enrichment index": 0.654},
      {"variant": "AGUUCACACAGGGAGCUCCAGCACAGUGAAAUGGACAGAACUGCAGAGCAA", "note": "[G5C C6A U7C G8A U10A G41C G42U]", "exon inclusion enrichment index": 0.481},
      {"variant": "AGUUCACACAGGGAGCUCCAGCACAGUGAAAUGGACAGAACAGCAGAGCAA", "note": "[G5C C6A U7C G8A U10A G41C G42A]", "exon inclusion enrichment index": 0.141},
      {"variant": "AGUUCACACAGGGAGCUCCAGCACAGCAAAAUGGACAGAAGGGCAGAGCAA", "note": "[G5C C6A U7C G8A U10A U27C G28A]", "exon inclusion enrichment index": 0.142},
      {"variant": "AGUUCACACAGGGAGCUCCAGCACAGCUAAAUGGACAGAAGGGCAGAGCAA", "note": "[G5C C6A U7C G8A U10A U27C G28U]", "exon inclusion enrichment index": 0.0768},
      {"variant": "AGUUCACACAGGGAGCUCCAGCACAGCCAAAUGGACAGAAGGGCAGAGCAA", "note": "[G5C C6A U7C G8A U10A U27C G28C]", "exon inclusion enrichment index": 0.163},
      {"variant": "AGUUCACACAGGGAGCUCCAGCACAGGAAAAUGGACAGAAGGGCAGAGCAA", "note": "[G5C C6A U7C G8A U10A U27G G28A]", "exon inclusion enrichment index": 0.122},
      {"variant": "AGUUCACACAGGGAGCUCCAGCACAGGCAAAUGGACAGAAGGGCAGAGCAA", "note": "[G5C C6A U7C G8A U10A U27G G28C]", "exon inclusion enrichment index": 0.0314},
      {"variant": "AGUUCACACAGGGAGCUCCAGCACAGGUAAAUGGACAGAAGGGCAGAGCAA", "note": "[G5C C6A U7C G8A U10A U27G G28U]", "exon inclusion enrichment index": 0.00217},
      {"variant": "AGUUCACCAAGGGAGCUCCAGCACAGUGAAAUGGACAGAAGGGCAGAGCAA", "note": "[G5C C6A U7C G8C C9A U10A]", "exon inclusion enrichment index": 0.741},
      {"variant": "AGUUCACACCCGGAGCUCCAGCACAGUGAAAUGGACAGAAGGGCAGAGCAA", "note": "[G5C C6A U7C G8A U10C G11C]", "exon inclusion enrichment index": 1.58},
      {"variant": "AGUUCACACCUGGAGCUCCAGCACAGUGAAAUGGACAGAAGGGCAGAGCAA", "note": "[G5C C6A U7C G8A U10C G11U]", "exon inclusion enrichment index": 1.71},
      {"variant": "AGUUCACACCAGGAGCUCCAGCACAGUGAAAUGGACAGAAGGGCAGAGCAA", "note": "[G5C C6A U7C G8A U10C G11A]", "exon inclusion enrichment index": 1.06},
      {"variant": "AGUUCACACAGGGAGCUCCAGCACAGUGAAAUGGACAGAAGGAAAGAGCAA", "note": "[G5C C6A U7C G8A U10A G43A C44A]", "exon inclusion enrichment index": 0.532},
      {"variant": "AGUUCACACAGGGAGCUCCAGCACAGUGAAAUGGACAGAAGGAUAGAGCAA", "note": "[G5C C6A U7C G8A U10A G43A C44U]", "exon inclusion enrichment index": 0.16},
      {"variant": "AGUUCACACAGGGAGCUCCAGCACAGUGAAAUGGACAGAAGGAGAGAGCAA", "note": "[G5C C6A U7C G8A U10A G43A C44G]", "exon inclusion enrichment index": 0.71},
      {"variant": "AGUUCACACAGGGAGCUCCAGCACAGUGAAACGGACAGAAGGGCAGAGCAA", "note": "[G5C C6A U7C G8A U10A U32C]", "exon inclusion enrichment index": 0.292},
      {"variant": "AGUUCACACAGGGAGCUCCAGCACAGUGAAAGGGACAGAAGGGCAGAGCAA", "note": "[G5C C6A U7C G8A U10A U32G]", "exon inclusion enrichment index": 0.00606},
      {"variant": "AGUUCACACAGGGAGCUCCAGCACAGUGAAAAGGACAGAAGGGCAGAGCAA", "note": "[G5C C6A U7C G8A U10A U32A]", "exon inclusion enrichment index": 0.0862},
      {"variant": "AGUUCACACAGGGAGCUCCAGCACAGUGAAAUGGACAGAAGCCCAGAGCAA", "note": "[G5C C6A U7C G8A U10A G42C G43C]", "exon inclusion enrichment index": 0.652},
      {"variant": "AGUUCACACAGGGAGCUCCAGCACAGUGAAAUGGACAGAAGCACAGAGCAA", "note": "[G5C C6A U7C G8A U10A G42C G43A]", "exon inclusion enrichment index": 0.455},
      {"variant": "AGUUCACACAGGGAGCUCCAGCACAGUGAAAUGGACAGAAGCUCAGAGCAA", "note": "[G5C C6A U7C G8A U10A G42C G43U]", "exon inclusion enrichment index": 0.483},
      {"variant": "AGUUCACACAGGGAGCUCCAGCACAGUGAAAUGGACAGAAAUGCAGAGCAA", "note": "[G5C C6A U7C G8A U10A G41A G42U]", "exon inclusion enrichment index": 0.105},
      {"variant": "AGUUCACACAGGGAGCUCCAGCACAGUGAAAUGGACAGAAACGCAGAGCAA", "note": "[G5C C6A U7C G8A U10A G41A G42C]", "exon inclusion enrichment index": 0.264},
      {"variant": "AGUUCACACAGGGAGCUCCAGCACAGUGAAAUGGACAGAAAAGCAGAGCAA", "note": "[G5C C6A U7C G8A U10A G41A G42A]", "exon inclusion enrichment index": 0.101},
      {"variant": "AGUUCACACAGGGAGCGACAGCACAGUGAAAUGGACAGAAGGGCAGAGCAA", "note": "[G5C C6A U7C G8A U10A U17G C18A]", "exon inclusion enrichment index": 0.109},
      {"variant": "AGUUCACACAGGGAGCGGCAGCACAGUGAAAUGGACAGAAGGGCAGAGCAA", "note": "[G5C C6A U7C G8A U10A U17G C18G]", "exon inclusion enrichment index": 0.159},
      {"variant": "AGUUCACACAGGGAGCGUCAGCACAGUGAAAUGGACAGAAGGGCAGAGCAA", "note": "[G5C C6A U7C G8A U10A U17G C18U]", "exon inclusion enrichment index": 0.0504},
      {"variant": "AGUUCACACGUGGAGCUCCAGCACAGUGAAAUGGACAGAAGGGCAGAGCAA", "note": "[G5C C6A U7C G8A U10G G11U]", "exon inclusion enrichment index": 1.69},
      {"variant": "AGUUCACACGAGGAGCUCCAGCACAGUGAAAUGGACAGAAGGGCAGAGCAA", "note": "[G5C C6A U7C G8A U10G G11A]", "exon inclusion enrichment index": 1.71},
      {"variant": "AGUUCACACGCGGAGCUCCAGCACAGUGAAAUGGACAGAAGGGCAGAGCAA", "note": "[G5C C6A U7C G8A U10G G11C]", "exon inclusion enrichment index": 2},
      {"variant": "AGUUCACACAGGGAGCUCCAGCACAGUGAAAUGGACAGAAGGGCAGAACAA", "note": "[G5C C6A U7C G8A U10A G48A]", "exon inclusion enrichment index": 0.25},
      {"variant": "AGUUCACACAGGGAGCUCCAGCACAGUGAAAUGGACAGAAGGGCAGACCAA", "note": "[G5C C6A U7C G8A U10A G48C]", "exon inclusion enrichment index": 0.213},
      {"variant": "AGUUCACACAGGGAGCUCCAGCACAGUGAAAUGGACAGAAGGGCAGAUCAA", "note": "[G5C C6A U7C G8A U10A G48U]", "exon inclusion enrichment index": 0.218},
      {"variant": "AGUUCACACAGGGAGCUCCAGCACAGUGAAACAGACAGAAGGGCAGAGCAA", "note": "[G5C C6A U7C G8A U10A U32C G33A]", "exon inclusion enrichment index": 0.033},
      {"variant": "AGUUCACACAGGGAGCUCCAGCACAGUGAAACUGACAGAAGGGCAGAGCAA", "note": "[G5C C6A U7C G8A U10A U32C G33U]", "exon inclusion enrichment index": 0.0717},
      {"variant": "AGUUCACACAGGGAGCUCCAGCACAGUGAAACCGACAGAAGGGCAGAGCAA", "note": "[G5C C6A U7C G8A U10A U32C G33C]", "exon inclusion enrichment index": 0.153},
      {"variant": "AGUUCACACAGGGAGCUCCAGCACAGUGAAAUGGACAGAAGCGCAGAGCAA", "note": "[G5C C6A U7C G8A U10A G42C]", "exon inclusion enrichment index": 0.501},
      {"variant": "AGUUCACACAGGGAGCUCCAGCACAGUGAAAUGGACAGAAGUGCAGAGCAA", "note": "[G5C C6A U7C G8A U10A G42U]", "exon inclusion enrichment index": 0.154},
      {"variant": "AGUUCACACAGGGAGCUCCAGCACAGUGAAAUGGACAGAAGAGCAGAGCAA", "note": "[G5C C6A U7C G8A U10A G42A]", "exon inclusion enrichment index": 0.428},
      {"variant": "AGUUCACACAGGGAGCUCCAGCACAGUGAAAUGGACAGAAGGGCAAUGCAA", "note": "[G5C C6A U7C G8A U10A G46A A47U]", "exon inclusion enrichment index": 0.159},
      {"variant": "AGUUCACACAGGGAGCUCCAGCACAGUGAAAUGGACAGAAGGGCAACGCAA", "note": "[G5C C6A U7C G8A U10A G46A A47C]", "exon inclusion enrichment index": 0.439},
      {"variant": "AGUUCACACAGGGAGCUCCAGCACAGUGAAAUGGACAGAAGGGCAAGGCAA", "note": "[G5C C6A U7C G8A U10A G46A A47G]", "exon inclusion enrichment index": 0.0332},
      {"variant": "AGUUCACACAGGGAGCUCCAGCACAGCGAAAUGGACAGAAGGGCAGAGCAA", "note": "[G5C C6A U7C G8A U10A U27C]", "exon inclusion enrichment index": 0.417},
      {"variant": "AGUUCACACAGGGAGCUCCAGCACAGGGAAAUGGACAGAAGGGCAGAGCAA", "note": "[G5C C6A U7C G8A U10A U27G]", "exon inclusion enrichment index": 0.0422}
    ]}
  ]
}
